Measured values published in patent US20150023989A1, “NEW ANTIBODY DRUG CONJUGATES (ADCS) AND THE USE THEREOF” (SEATTLE GENETICS, INC., priority 2011, published 2015).

Legend:
Experiment in all cases: ELISA cross-reactivity of M048-D01 Fab
Conditions in all cases: Fab 1 μg/ml, TRAIL-Fc wells as background
[1] = molecular target: T1, hFGFR1β-Fc (IIIc) (Homo sapiens, UniProt P11362); assay type: binding
T1 construct: purchased RnD Systems 661-FR
Protocol: (§1) The cross-reactivity of the human antibodies M048-D01-hIgG1 and M048-D01-hIgG1-b of the present application was determined using the parental Fab fragment M048-D01 (comprising Vh: SEQ ID NO: 21 and Vl: SEQ ID NO: 22).
(§2) All of the variants took the form of Fc fusion proteins in carrier-free preparations. The proteins were biotinylated according to manufacturer instructions, using a 2-fold molar excess of biotin-LC-NHS (Pierce; Cat. No. 21347) and desalted using Zeba desalting columns (Pierce; Cat. No. 89889). For the ELISA, 96-well plates pretreated with streptavidin (Pierce, 15500) were loaded overnight at 4° C. with 1 μg/ml biotinylated protein. Wells which had been loaded with biotinylated TRAIL-Fc served as a reference. The next day the plates were washed 3× with PBST (1×PBS admixed with 0.05% Tween 20 (Sigma, P7949)), treated with blocking buffer (PBST admixed with 3% BSA (Sigma A4503)), and again washed three times with PBST. 100 μl of the purified Fab (1 μg/ml) were added, and incubation was carried out at room temperature for 1 hour. After threefold washing with PBST, an HRP-coupled anti-hIgG (Fab-specific) (diluted 1:2500, Sigma, A0293) was added, and incubation took place at room temperature for 1 hour. The colour reaction was activated by addition of 50 μl of TMB (Invitrogen, 2023) and halted after 5-15 minutes by addition of 50 μl of H2SO4 (Merck, 1120801000). The colour reaction was monitored at 450 nm in a plate reader (Tecan). The signal strengths of the wells containing TRAIL-Fc were used as background values, and the signal-to-background ratios were calculated as summarized in Table 3.

[2] = molecular target: T2, hFGFR2α-Fc (IIIb) (Homo sapiens, UniProt P21802); assay type: binding
T2 construct: purchased RnD Systems 663-FR
T2 sequence (P21802 22-822 isoform P21802-3 limits assumed): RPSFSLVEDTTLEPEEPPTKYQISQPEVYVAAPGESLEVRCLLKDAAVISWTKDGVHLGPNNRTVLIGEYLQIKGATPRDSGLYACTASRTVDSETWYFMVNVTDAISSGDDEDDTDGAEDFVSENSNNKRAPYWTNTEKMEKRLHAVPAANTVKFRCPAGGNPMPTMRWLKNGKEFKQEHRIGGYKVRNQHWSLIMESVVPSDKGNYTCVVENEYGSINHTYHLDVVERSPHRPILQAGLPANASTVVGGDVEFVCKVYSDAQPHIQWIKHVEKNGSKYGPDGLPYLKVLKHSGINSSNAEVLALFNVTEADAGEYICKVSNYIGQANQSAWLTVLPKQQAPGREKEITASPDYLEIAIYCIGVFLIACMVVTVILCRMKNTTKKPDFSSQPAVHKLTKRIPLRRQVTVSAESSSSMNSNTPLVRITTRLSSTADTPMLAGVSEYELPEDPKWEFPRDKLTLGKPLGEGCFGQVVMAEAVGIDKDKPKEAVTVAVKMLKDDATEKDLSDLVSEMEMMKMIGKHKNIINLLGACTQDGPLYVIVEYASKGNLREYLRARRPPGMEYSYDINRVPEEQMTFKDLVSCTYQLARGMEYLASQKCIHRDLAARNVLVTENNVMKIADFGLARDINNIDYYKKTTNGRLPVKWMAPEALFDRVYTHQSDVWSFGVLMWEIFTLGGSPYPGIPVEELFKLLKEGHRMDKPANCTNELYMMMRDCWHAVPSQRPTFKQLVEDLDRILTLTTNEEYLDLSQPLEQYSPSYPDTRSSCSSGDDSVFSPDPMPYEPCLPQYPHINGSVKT
Protocol: as §1, §2

[3] = molecular target: T3, hFGFR2β-Fc (IIIb) (Homo sapiens, UniProt P21802); assay type: binding
T3 construct: purchased RnD Systems 665-FR
T3 sequence (P21802 22-680 isoform P21802-22 limits assumed): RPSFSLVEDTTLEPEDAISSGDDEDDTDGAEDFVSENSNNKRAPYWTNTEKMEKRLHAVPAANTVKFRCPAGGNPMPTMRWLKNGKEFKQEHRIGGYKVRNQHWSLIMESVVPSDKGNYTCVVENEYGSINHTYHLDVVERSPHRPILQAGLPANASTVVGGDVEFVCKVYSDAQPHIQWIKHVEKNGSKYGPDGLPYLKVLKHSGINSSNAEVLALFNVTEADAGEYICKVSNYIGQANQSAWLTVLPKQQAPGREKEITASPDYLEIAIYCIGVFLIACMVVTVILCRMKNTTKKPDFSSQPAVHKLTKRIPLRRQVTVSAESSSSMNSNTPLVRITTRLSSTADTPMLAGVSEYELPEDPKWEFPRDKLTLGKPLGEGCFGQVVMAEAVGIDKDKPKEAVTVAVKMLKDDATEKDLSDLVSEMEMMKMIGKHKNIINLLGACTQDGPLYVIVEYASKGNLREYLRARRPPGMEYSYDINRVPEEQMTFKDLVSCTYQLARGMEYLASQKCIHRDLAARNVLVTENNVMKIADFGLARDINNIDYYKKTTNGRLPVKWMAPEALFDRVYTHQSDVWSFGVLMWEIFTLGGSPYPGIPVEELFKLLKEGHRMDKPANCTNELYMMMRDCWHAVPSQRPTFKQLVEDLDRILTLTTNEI
Protocol: as §1, §2

[4] = molecular target: T4, hFGFR3-Fc (IIIb) (Homo sapiens, UniProt P22607); assay type: binding
T4 construct: purchased RnD Systems 1264-FR
T4 sequence (P22607 23-808 isoform P22607-2 limits assumed): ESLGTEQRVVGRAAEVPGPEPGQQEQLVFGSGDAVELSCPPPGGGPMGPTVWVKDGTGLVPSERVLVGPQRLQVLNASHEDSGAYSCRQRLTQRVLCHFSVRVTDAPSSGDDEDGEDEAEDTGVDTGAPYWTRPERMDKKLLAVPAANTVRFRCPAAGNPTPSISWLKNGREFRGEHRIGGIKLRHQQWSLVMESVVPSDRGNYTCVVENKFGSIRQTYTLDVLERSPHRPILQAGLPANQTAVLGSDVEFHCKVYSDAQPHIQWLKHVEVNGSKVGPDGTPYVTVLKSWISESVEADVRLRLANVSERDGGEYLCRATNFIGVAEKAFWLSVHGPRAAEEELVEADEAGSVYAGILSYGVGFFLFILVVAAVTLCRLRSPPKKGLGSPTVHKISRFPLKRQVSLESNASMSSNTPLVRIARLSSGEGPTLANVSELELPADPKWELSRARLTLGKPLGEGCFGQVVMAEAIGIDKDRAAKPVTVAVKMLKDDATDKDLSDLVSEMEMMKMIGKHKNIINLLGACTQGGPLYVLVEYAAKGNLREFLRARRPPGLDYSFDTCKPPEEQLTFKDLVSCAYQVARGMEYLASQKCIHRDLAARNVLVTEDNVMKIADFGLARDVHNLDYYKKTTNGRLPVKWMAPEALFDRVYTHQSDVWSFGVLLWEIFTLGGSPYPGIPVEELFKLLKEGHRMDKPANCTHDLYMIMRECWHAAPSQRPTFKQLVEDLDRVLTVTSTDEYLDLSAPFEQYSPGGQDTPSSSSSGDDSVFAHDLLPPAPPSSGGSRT
Protocol: as §1, §2

[5] = molecular target: T5, hFGFR3-Fc (IIIc) (Homo sapiens, UniProt P22607); assay type: binding
T5 construct: purchased RnD Systems 766-FR
T5 sequence (P22607 23-375 limits assumed): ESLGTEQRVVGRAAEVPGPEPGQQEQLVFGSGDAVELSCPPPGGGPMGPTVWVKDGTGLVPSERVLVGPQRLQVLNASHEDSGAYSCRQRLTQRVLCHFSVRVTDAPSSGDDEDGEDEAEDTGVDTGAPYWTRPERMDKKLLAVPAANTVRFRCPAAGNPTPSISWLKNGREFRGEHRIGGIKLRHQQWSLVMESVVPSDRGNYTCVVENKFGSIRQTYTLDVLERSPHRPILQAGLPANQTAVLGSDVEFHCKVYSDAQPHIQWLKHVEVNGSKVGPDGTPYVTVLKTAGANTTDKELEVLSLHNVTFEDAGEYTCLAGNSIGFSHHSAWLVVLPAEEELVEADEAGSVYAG
Protocol: as §1, §2

[6] = molecular target: T6, hFGFR4-Fc (Homo sapiens, UniProt P22455); assay type: binding
T6 construct: purchased RnD Systems 685-MF
Protocol: as §1, §2

[7] = molecular target: T7, mFGFR2β-Fc (IIIb) (Mus musculus, UniProt P21803); assay type: binding
T7 construct: purchased RnD Systems 708-MF
T7 sequence (P21803 22-707 isoform P21803-2 limits assumed): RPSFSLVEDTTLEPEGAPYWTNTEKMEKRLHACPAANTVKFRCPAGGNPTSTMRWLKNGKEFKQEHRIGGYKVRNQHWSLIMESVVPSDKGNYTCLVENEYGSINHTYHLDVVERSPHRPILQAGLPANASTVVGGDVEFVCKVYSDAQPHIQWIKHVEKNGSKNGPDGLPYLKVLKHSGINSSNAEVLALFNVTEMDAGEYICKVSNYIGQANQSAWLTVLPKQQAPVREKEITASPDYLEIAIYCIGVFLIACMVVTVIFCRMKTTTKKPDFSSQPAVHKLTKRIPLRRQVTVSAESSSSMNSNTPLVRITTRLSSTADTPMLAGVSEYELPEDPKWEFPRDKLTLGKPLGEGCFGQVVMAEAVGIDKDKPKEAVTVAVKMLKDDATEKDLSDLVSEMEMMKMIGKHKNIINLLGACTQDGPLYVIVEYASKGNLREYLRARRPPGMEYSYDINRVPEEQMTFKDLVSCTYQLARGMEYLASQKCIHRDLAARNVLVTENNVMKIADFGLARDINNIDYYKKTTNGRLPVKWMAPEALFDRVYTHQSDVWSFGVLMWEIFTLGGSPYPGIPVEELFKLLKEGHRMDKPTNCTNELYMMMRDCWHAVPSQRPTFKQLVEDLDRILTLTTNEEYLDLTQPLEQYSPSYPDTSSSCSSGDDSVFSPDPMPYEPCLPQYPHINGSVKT
Protocol: as §1, §2

[8] = molecular target: T8, mFGFR3-Fc (IIIc) (Mus musculus, UniProt Q61851); assay type: binding
T8 construct: purchased RnD Systems 710-MF
T8 sequence (Q61851 21-369 limits assumed): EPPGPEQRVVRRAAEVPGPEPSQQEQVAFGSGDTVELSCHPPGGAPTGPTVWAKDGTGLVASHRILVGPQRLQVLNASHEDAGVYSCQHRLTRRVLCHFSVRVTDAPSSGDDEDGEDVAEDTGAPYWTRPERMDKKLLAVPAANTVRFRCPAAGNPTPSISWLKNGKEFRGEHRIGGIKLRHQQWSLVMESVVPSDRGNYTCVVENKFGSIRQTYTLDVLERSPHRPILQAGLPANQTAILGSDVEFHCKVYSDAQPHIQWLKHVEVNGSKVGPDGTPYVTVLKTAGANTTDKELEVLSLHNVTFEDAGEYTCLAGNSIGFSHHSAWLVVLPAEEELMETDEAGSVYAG
Protocol: as §1, §2

[9] = tested on: hFGFR1β-Fc (IIIb); assay type: binding, Human
Protocol: as §1
as §2, with “After threefold washing with PBST, an HRP-coupled anti-hIgG (Fab-specific) (diluted 1:2500, Sigma, A0293) was added, and incubation took place at room temperature for 1 hour. The colour reaction was activated by addition of 50 μl of TMB (Invitrogen, 2023) and halted after 5-15 minutes by addition of 50 μl of H2SO4 (Merck, 1120801000).” left out

[10] = tested on: hFGFR2β-Fc (IIIc); assay type: binding, Human
Protocol: as §1
as §2, with “After threefold washing with PBST, an HRP-coupled anti-hIgG (Fab-specific) (diluted 1:2500, Sigma, A0293) was added, and incubation took place at room temperature for 1 hour. The colour reaction was activated by addition of 50 μl of TMB (Invitrogen, 2023) and halted after 5-15 minutes by addition of 50 μl of H2SO4 (Merck, 1120801000).” left out

[11] = tested on: mFGFR2β-Fc (IIIc); assay type: binding, Mouse
Protocol: as §1
as §2, with “After threefold washing with PBST, an HRP-coupled anti-hIgG (Fab-specific) (diluted 1:2500, Sigma, A0293) was added, and incubation took place at room temperature for 1 hour. The colour reaction was activated by addition of 50 μl of TMB (Invitrogen, 2023) and halted after 5-15 minutes by addition of 50 μl of H2SO4 (Merck, 1120801000).” left out

T1 sequence (P11362 22-733 isoform P11362-3 limits assumed): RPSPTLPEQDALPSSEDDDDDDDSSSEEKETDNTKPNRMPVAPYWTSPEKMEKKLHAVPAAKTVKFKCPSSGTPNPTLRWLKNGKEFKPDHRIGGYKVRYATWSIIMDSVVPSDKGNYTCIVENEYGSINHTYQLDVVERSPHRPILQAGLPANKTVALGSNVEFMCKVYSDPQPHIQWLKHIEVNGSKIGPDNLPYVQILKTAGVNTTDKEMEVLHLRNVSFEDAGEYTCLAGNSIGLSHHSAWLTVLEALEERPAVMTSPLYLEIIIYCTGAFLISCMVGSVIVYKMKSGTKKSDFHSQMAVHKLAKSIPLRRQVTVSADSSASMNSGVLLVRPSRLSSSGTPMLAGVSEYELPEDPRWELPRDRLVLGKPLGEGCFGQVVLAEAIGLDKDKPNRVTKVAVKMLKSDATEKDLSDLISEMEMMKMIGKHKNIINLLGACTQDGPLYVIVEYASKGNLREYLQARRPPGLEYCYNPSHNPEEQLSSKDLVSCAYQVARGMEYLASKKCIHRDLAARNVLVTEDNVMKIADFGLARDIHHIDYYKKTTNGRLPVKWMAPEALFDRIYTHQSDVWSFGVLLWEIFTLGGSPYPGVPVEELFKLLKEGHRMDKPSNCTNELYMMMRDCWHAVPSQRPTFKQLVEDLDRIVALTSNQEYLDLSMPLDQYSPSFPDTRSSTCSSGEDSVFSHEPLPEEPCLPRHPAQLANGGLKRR

B1: M048-D01 (antibody, V domains shown)
VH: EVQLLESGGGLVQPGGSLRLSCAASGFTFSSYAMSWVRQAPGKGLEWVSAISGSGTSTYYADSVKGRFTISRDNSKNTLYLQMNSLRAEDTAVYYCARVRYNWNHGDWFDPWGQGTLVTVSS
VL: QSVLTQPPSASGTPGQRVTISCSGSSSNIGNNYVSWYQQLPGTAPKLLIYENYNRPAGVPDRFSGSKSGTSASLAISGLRSEDEADYYCSSWDDSLNYWVFGGGTKLTVL
Signal-to-background ratio, hFGFR1β-Fc (IIIc) [1]: 0 (0: <2) | Signal-to-background ratio, hFGFR2α-Fc (IIIb) [2]: +++ (+++: >5) | Signal-to-background ratio, hFGFR2β-Fc (IIIb) [3]: +++ (+++: >5) | Signal-to-background ratio, hFGFR3-Fc (IIIb) [4]: 0 (0: <2) | Signal-to-background ratio, hFGFR3-Fc (IIIc) [5]: 0 (0: <2) | Signal-to-background ratio, hFGFR4-Fc [6]: 0 (0: <2) | Signal-to-background ratio, mFGFR2β-Fc (IIIb) [7]: +++ (+++: >5) | Signal-to-background ratio, mFGFR3-Fc (IIIc) [8]: 0 (0: <2) | Signal-to-background ratio, hFGFR1β-Fc (IIIb) [9]: 0 (0: <2) | Signal-to-background ratio, hFGFR2β-Fc (IIIc) [10]: +++ (+++: >5) | Signal-to-background ratio, mFGFR2β-Fc (IIIc) [11]: +++ (+++: >5)
